We go through 1 protein from PMC1373645, “Lactate production yield from engineered yeasts is dependent from the host background, the lactate dehydrogenase source and the lactate export” (Microbial Cell Factories, 2006).

Substrate in the data set: CC(=O)C(=O)O
As to the kind of experiment: cells, lysate or membranes. Conditions: NADH, acetate buffer pH 5.6, 25 °C, no fructose 1,6-diphosphate, Table 2 prints 1,50. In kind it is biochemical, Lactiplantibacillus plantarum.

B1: L. plantarum LDH (LpLDH, plLDH) (Lactiplantibacillus plantarum WCFS1; D94G) (protein)
chain: MSSMPNHQKVVLVGDGAVGSSYAFAMAQQGIAEEFVIVDVVKDRTKGDALDLEDAQAFTAPKKIYSGEYSDCKDADLVVITAGAPQKPGESRLGLVNKNLNILSSIVKPVVDSGFDGIFLVAANPVDILTYATWKFSGFPKDRVIGSGTSLDSSRLRVALGKQFNVDPRSVDAYIMGEHGDSEFAAYSTATIGTRPVRDVAKEQGVSDEDLAKLEDGVRNKAYDIINLKGATFYGIGTALMRISKAILRDENAVLPVGAYMDGQYGLNDIYIGTPAVIGGTGLKQIIESPLSADELKKMQDSAATLKKVLNDGLAELENK
notes: full length, TTG start changed to ATG, untagged, expressed in S. cerevisiae GRF18U; crude cell extract; homotetramer
Turning to B1, the Km stood at 1010 µM.
